Patent publication US20150376243A1, “Use of AXMI184 for the Control of Rootworm Insects” (ATHENIX CORP., priority 2013, published 2015)

Key:
[1] = system: western corn rootworm (Diabrotica virgifera); test: Root damage in T0 transgenic maize in root-trainer containers infested with western corn rootworm eggs (CRWNIS); assay type: in vivo; conditions: T0 maize plants containing optAxmi184 and expressing detectable AXMI184; ~125 non-diapausing eggs per plant; assessed after fifteen days; versus control plants infested in the same manner; FIG. 1
Text: Transgenic maize plants transformed with an optimized version of Axmi184 (optAxmi184, set forth herein as SEQ ID NO:2) were obtained by Agrobacterium-mediated transformation. Plants shown by PCR analysis to contain the appropriate Axmi184 construct were selected, and transferred to root trainer containers.
T0 plants containing optAxmi184 were transplanted to root-trainer containers and propagated for approximately three weeks. Individual plants were then each infested with ˜125 non-diapausing western corn rootworm (Diabrotica virgifera) eggs. Plants were analyzed for expression of AXMI184 protein by Western blot analysis using an anti-AXMI184 antibody. Plants expressing detectable amounts of AXMI184 were selected for analysis. After fifteen days, the amount of root damage in each plant was assessed using the Node Injury Scale (CRWNIS) (Oleson et al. 2005. J. Econ Entomol. 98(1): 1-8), where 0.00 is no injury and 3.00 is all roots pruned to within 1.5 inches of the stalk on three entire nodes.

western corn rootworm = test: Field trial of T1 maize plants, corn rootworm root injury (CRWNIS); assay type: in vivo, Diabrotica virgifera; conditions: two locations in Iowa; 750 non-diapausing western corn rootworm eggs per plant; scale 0.00 no injury to 3.00 three entire nodes pruned
Method: T1 plants expressing optAxmi184 were tested at two locations in Iowa. Each experimental unit consisted of a one-row plot of maize measuring approximately 15 feet. Plots were arranged using a randomized complete block design with four replications. Efficacy against western corn rootworm was determined by evaluating up to eight maize roots per plot. Inbreds B110 and B116, a CRW-susceptible commercial hybrid, and two CRW control standards: B110 with a standard granular insecticide (FORCE® 3G), and B110 with an insecticidal seed treatment (PONCHO® 1250) were used as controls.
Fields were prepared for this study using cultural practices similar to those used in commercial maize fields in Iowa. Plants not containing transgenic events for CRW control were identified and excluded from the study using an application of 16 oz/A of glyphosate when plants were at the V1 leaf stage. Five to ten days later, the number of positive and negative plants in each plot was recorded. Negative plants were then removed and the remaining positive plants were thinned to 8 plants per row. All plants were then manually infested with non-diapausing western corn rootworm eggs. The eggs were suspended in a dilute agar solution and calibrated to deliver 750 eggs per plant for all plots.
Roots were dug, washed and evaluated for CRW injury after a period of larval feeding. […]

B1: AXMI184: Pesticidal protein SEQ ID NO:3 from Bacillus thuringiensis strain ATX14775; expressed in maize from optimized gene optAxmi184 (SEQ ID NO:2) (protein, listed as Bacillus thuringiensis)
chain: MNMNKNNTKLSARALPSFIDYFNGIYGFATGIKDIMNMIFKTDTGGDLTLDEILKNQQLLNDISGKLDGVNGSLNDLIAQGNLNTELSKEILKIANEQNQVLNDVNNKLDAINTMLHVYLPKITSMLSDVMKPNYALSMQIEYLSRQLQEISDKLDIINVNVLINSTLTEITPAYQWIKYVNEKFEELTFATETTLKVKNDSASADILDELTELTELAKSVTKNDVDGFEFYLNTFHDVMVGNNLFGRSTLKTASELIAKENVKTSGSEVGNVYNFLVVLTALQAKAFLTLTTCRKLLGLADIDYTSIMNEHLNKEKEEFRVNILPILSNTFSNPNYAKVKGSDEDAKMIVEAKPGHALVGFEISNDSMTVLKVYEAKLKQNYQVDKDSLSEVIYGDMDKLLCPDQSEKIYYTNNIVFPNEYVITKIDFTKKMKTLRYEVTANSYDSSTGEIDLNKKKVESSKAEYRTLSANNDGVYMPLGVISETFLTPINGFGLQADENSRLITLTCKSYLRELLLATDLSNKETKLIVPPNSFISNIVENGSIEEGHLEPWKANNKNAYVDHTGGVNGTKALYVHEDGGVSQFMGDKLKPKTEYVIQYTVKGKPSIHLKDENTGYILYEDTNNDLEDFQTITKRFTTGTDLMRVYLILKSQSGHEAWGDNFTILEIKPAEALVSPELINPNSWITTQGASISGDKLFISLGTNGTFRQNLSLNSYSTYSISFTASGPFNVTVRNSREVLYERNNLMSSTSHISGEFKTESNNTGLYVELSRRSGGAGHISFENISIK
amount of root damage, Node Injury Scale (CRWNIS) [1]: lower root damage than control plants | Average CRWNIS (western corn rootworm): 0.12
